# Laboratory results reported in patent US5279812.
# Like-named read-outs stand apart in the source and are kept apart here.
# Tests used:
# Bovine thrombin (bovine) [1] = target: Bovine thrombin (bovine) (UniProt P00735)
# Bovine thrombin (bovine) [2] = target: Bovine thrombin (bovine) (UniProt P00735); remark: listed apart in the source
"IC50, thrombin induced fibrin clot inhibition assay (turbidity at 405 nM) (Bovine thrombin (bovine) [1]) [µM]","IC50, thrombin induced fibrin clot inhibition assay (turbidity at 405 nM) (Bovine thrombin (bovine) [2]) [µM]",Substance
< 25,,"Suc 3,5-diI-Tyr Glu Pro Ile Pro Glu Glu Ala Cha D-Glu (ID#4) (peptide)"
,< 25,Suc--Tyr--Glu--Pro--Ile--Pro--Glu--Glu--Cha--D--Glu (ID#21) (peptide)
,< 25,Suc--Tyr--Glu--Pro--Ile--Pro--Glu--Glu--Cha--Gln--NH2 (ID#11) (peptide)
,< 25,Suc--Tyr--Glu--Pro--Tiq--Glu--Glu--Ala--Cha--D--Glu (ID#9) (peptide)
